Test results published in paper PMC9717613.
Residue numbers refer to the chain shown, from its start. In names and notes the source's numbering stands.

Tests used:
[1] = substrate: Nc1ccccc1C(=O)C[C@H](N)C(=O)O; assay: purified protein; type: biochemical, Homo sapiens; details: 0-2 mM substrate, 0.10-1.00 uM enzyme
[2] = substrate: Nc1c(O)cccc1C(=O)CC(N)C(=O)O; assay: purified protein; details: HsKYNase_66; racemic substrate; in D2O-PBS (H2O value only in Figure 1f)

B1: HsKYNase (human kynureninase) (Homo sapiens) (protein)
chain: MEPSSLELPADTVQRIAAELKCHPTDERVALHLDEEDKLRHFRECFYIPKIQDLPPVDLSLVNKDENAIYFLGNSLGLQPKMVKTYLEEELDKWAKIAAYGHEVGKRPWITGDESIVGLMKDIVGANEKEIALMNALTVNLHLLMLSFFKPTPKRYKILLEAKAFPSDHYAIESQLQLHGLNIEESMRMIKPREGEETLRIEDILEVIEKEGDSIAVILFSGVHFYTGQHFNIPAITKAGQAKGCYVGFDLAHAVGNVELYLHDWGVDFACWCSYKYLNAGAGGIAGAFIHEKHAHTIKPALVGWFGHELSTRFKMDNKLQLIPGVCGFRISNPPILLVCSLHASLEIFKQATMKALRKKSVLLTGYLEYLIKHNYGKDKAATKKPVVNIITPSHVEERGCQLTITFSVPNKDVFQELEKRGVVCDKRNPNGIRVAPVPLYNSFHDVYKFTNLLTSILDSAETKN
- Km [1]: 1570 µM
- kcat [1]: 0.18 s⁻¹
- kcat/Km [1]: 110 M⁻¹ s⁻¹

B2: HsKYNase (human kynureninase) (Homo sapiens; E103Q/F225Y/I331V/I405L/L72N/M189I/N67D/S274G/S408N) (protein)
chain: B1 chain with N67D, L72N, E103Q, M189I, F225Y, S274G, I331V, I405L, S408N
- Km ([1]; HsKYNase_46): 190 µM
- kcat ([1]; HsKYNase_46): 0.58 s⁻¹
- kcat/Km ([1]; HsKYNase_46): 3100 M⁻¹ s⁻¹

B3: HsKYNase (human kynureninase) (Homo sapiens; … (protein)
chain: MEPSSLELPADTVQRIAAELKCHPTDERVALHLDEEDKLRHFRECFYIPKIQDLPPVDLSLVNKDEDAIYFNGNSLGLQPKMVKTYLEEELDKWAKIAIYGWFEGDSPWIHYDESIVGLMKDIVGANEKEIVLMNTLTVNLHLLMLSFFKPTPKRYKILLEAKAFPSDHYAIESQLQLHGLNIEESMRIIKPREGEETLRIEDILEVIEKEGDSIAVILFSGIHYYTGQHFNIPAITKAGQAKGCYVGFDLAHAVGNVELYLHDWGVDFACWCGYKYLNSSPGGIAGAFIHEKHAHTIKPALVGWFGHELSTRFKMDNKLQLIPGVCGFRCSTPPILLVCILHASLEIFKQATMKALRKKSVLLTGYLEYLIKHNYGKDKAATKKPVVNIITPSHVEERGCQLTLTFNVPNKDVFQELEKRGVVCDKRNPNGIRVAPVPLYNSFHDVYKFTNLLTSILDSAETKN
- Km [2]: 1370 ± 200 µM
- Km ([1]; HsKYNase_66): 27 µM
- kcat ([1]; HsKYNase_66): 1.54 s⁻¹
- kcat/Km ([1]; HsKYNase_66): 56000 M⁻¹ s⁻¹

B4: HsKYNase (human kynureninase) (Homo sapiens; A136T/A99I/E103F/F225Y/H102W/I110M/I331C/I405L/K106E/L72N/M189I/N333T/N67D/R107S/S274G/S341I/S408N/V104E) (protein)
chain: B3 chain with D106E, I110M, H111T, Y112G, V132A, I223V, S280A, S281G, P282A
- Km ([1]; HsKYNase_64): 36 µM
- kcat ([1]; HsKYNase_64): 0.24 s⁻¹
- kcat/Km ([1]; HsKYNase_64): 6700 M⁻¹ s⁻¹

B5: HsKYNase (human kynureninase) (Homo sapiens; … (protein)
chain: B3 chain with A68T, I110L, V132A, I223V, G274N, F306W
- Km ([1]; HsKYNase_95): 16 µM
- kcat ([1]; HsKYNase_95): 0.85 s⁻¹
- kcat/Km ([1]; HsKYNase_95): 55000 M⁻¹ s⁻¹
